Assay results reported in US20180171024A1.
Like-named read-outs stand apart in the source and are kept apart here.

Columns and labels:
[1] = target: HLA-A2 on cells (tumor cell lines, normal primary cells, PBMCs) (human); test: flow cytometry, Loucy cells
[2] = target: HLA-A2 on cells (tumor cell lines, normal primary cells, PBMCs) (human); test: flow cytometry, PBMCs #IB, 10 µg/ml
[3] = target: HLA-A2 on cells (tumor cell lines, normal primary cells, PBMCs) (human); test: flow cytometry, DG-75 cells, 10 µg/ml
[4] = target: HLA-A2 on cells (tumor cell lines, normal primary cells, PBMCs) (human); test: flow cytometry, H2228 cells, 10 µg/ml
[5] = target: HLA-A2 on cells (tumor cell lines, normal primary cells, PBMCs) (human); test: flow cytometry, fibroblasts Fib, 10 µg/ml
[6] = target: HLA-A2 on other WT1 negative HLA-A2+ cells (other than 501, A498 and SKMEL; members not named); test: flow cytometry on JVM-2 cells (WT1 mRNA -)
[7] = target: HLA-A2 on cells (tumor cell lines, normal primary cells, PBMCs) (human); test: flow cytometry, MEWO melanoma cells
[8] = target: HLA-A2 on cells (tumor cell lines, normal primary cells, PBMCs) (human); test: flow cytometry, IM-9 cells, 10 µg/ml
[9] = target: HLA-A2 on cells (tumor cell lines, normal primary cells, PBMCs) (human); test: flow cytometry, SK-Mel5 melanoma cells
[10] = target: HLA-A2 on cells (tumor cell lines, normal primary cells, PBMCs) (human); test: flow cytometry, KYSE-140 cells, 10 µg/ml
[11] = target: HLA-A2/WT1 126-134 complex on T2 cells (human); test: flow cytometry, T2 cells loaded with WT1 [..], 10 µg/ml
[12] = target: HLA-A2/SSX-2 on T2 cells (human); test: flow cytometry, T2 cells loaded with SSX2 [..], 10 µg/ml
[13] = target: HLA-A2 on unloaded T2 cells (human); test: flow cytometry, unloaded T2 cells, 10 µg/ml
[14] = target: HLA-A2 on HLA-A2+/WT1+ BV173 cells (WT1 mRNA positive; WT1 126-134 peptide not detected by mass spectrometry of eluted HLA peptides); test: flow cytometry on BV173 cells (WT1 mRNA +)
[15] = target: HLA-A2 on cells (tumor cell lines, normal primary cells, PBMCs) (human); test: flow cytometry, PANC-1 pancreatic carcinoma cells, 10 µg/ml
[16] = target: HLA-A2/TyrD-S6 on T2 cells (human); test: flow cytometry, T2 cells loaded with TyrD S6 [..], 10 µg/ml
[17] = target: HLA-A2/TyrD-S7 on T2 cells (human); test: flow cytometry, T2 cells loaded with TyrD S7 [..], 10 µg/ml
[18] = target: HLA-A2 on cells (tumor cell lines, normal primary cells, PBMCs) (human); test: flow cytometry, hepatocytes #5200-1, 10 µg/ml
[19] = target: HLA-A2 on cells (tumor cell lines, normal primary cells, PBMCs) (human); test: flow cytometry, 501A melanoma cells, 10 µg/ml
[20] = target: HLA-A2 on cells (tumor cell lines, normal primary cells, PBMCs) (human); test: flow cytometry, A375 melanoma cells, 10 µg/ml
[21] = target: HLA-A2/GP9 on T2 cells (human); test: flow cytometry, T2 cells loaded with GP9 peptide
[22] = target: HLA-A2/Tyrosinase369-377 complex on cells (human); test: flow cytometry, T2 cells loaded with 10^-4 M peptide
[23] = target: P68 … (Homo sapiens); test: as above
[24] = target: HLA-A2/TyrD-S20 on T2 cells (human); test: flow cytometry, peptide-loaded T2 cells (10^-5 M), PE anti-mouse IgG
[25] = target: HLA-A2/TyrD-S21 on T2 cells (human); test: as above
[26] = target: HLA-A2/TyrD-S22 on T2 cells (human); test: as above
[27] = target: HLA-A2/TyrD-S23 on T2 cells (human); test: as above
[28] = target: HLA-A2/M1 on T2 cells (human); test: flow cytometry, T2 cells loaded with M1 peptide
[29] = target: HLA-A2/Tyrosinase369-377 complex on cells (human); test: flow cytometry, T2 cells loaded with TyrD [..], 10 µg/ml
[30] = target: HLA-A2/TyrN on T2 cells (human); test: flow cytometry, T2 cells loaded with TyrN [..], 10 µg/ml
[31] = target: HLA-A2/Tyrosinase369-377 complex on cells (human); test: flow cytometry, T2 cells loaded with TyrD [..], 10 µg/ml; remark: listed apart in the source
[32] = target: HLA-A2/MAGE-A4 230-239 complex on cells (human); test: flow cytometry, T2 cells loaded with MAGE-A4 [..], 10 µg/ml
[33] = target: HLA-A2 on cells (tumor cell lines, normal primary cells, PBMCs) (human); test: flow cytometry, colonic smooth muscle cells #2940, 10 µg/ml
[34] = target: HLA-A2/TyrD-S18 on T2 cells (human); test: flow cytometry, T2 cells loaded with TyrD-S18 [..], 10 µg/ml
[35] = target: HLA-A2/TyrD-S11 on T2 cells (human); test: flow cytometry, T2 cells loaded with TyrD S11 [..], 10 µg/ml
[36] = target: HLA-A2/WT1 126-134 complex on T2 cells (human); test: flow cytometry, peptide-loaded T2 cells (10^-4-10^-5 M), PE anti-mouse
[37] = target: HLA-A2/WT1-S10 on T2 cells (human); test: as above
[38] = target: HLA-A2/WT1-S5 on T2 cells (human); test: as above

## BB7.2 (antibody)
[1]
  GeoMean: 734
[2]
  MFI: 552
[3]
  MFI: 700
[4]
  MFI: 210
[5]
  MFI: 481
[6]
  MFI: 238
[7]
  MFI: 76
[8]
  MFI: 457
[9]
  MFI: 76
[10]
  MFI: 36.1
[11]
  MFI relative to background: 1420
[12]
  MFI relative to background: 1280
[13]
  MFI relative to background: 417
[14]
  MFI: 962
[15]
  MFI: 242
[16]
  MFI relative to background: 516
[17]
  MFI relative to background: 666
[18]
  MFI: 591
[19]
  MFI: 760
[20]
  MFI: 174
[21]
  MFI: 2470
[22]
  MFI: 471
[23]
  MFI: 542
[24]
  MFI relative to background: 445
[25]
  MFI relative to background: 654
[26]
  MFI relative to background: 464
[27]
  MFI relative to background: 443
[28]
  MFI: 1990
[29]
  MFI relative to background: 561
[30]
  MFI relative to background: 483
[31]
  MFI relative to background: 430
[32]
  MFI relative to background: 965
[33]
  MFI: 744
[34]
  MFI relative to background: 838
[35]
  MFI relative to background: 473
[36]
  MFI: 2260
[37]
  MFI: 1350
[38]
  MFI: 1080
